Measurements as given in article PMC11624282, “PARP1 condensates differentially partition DNA repair proteins and enhance DNA ligation”.

Tests used:
mCherry-PARP1 [1] = biological target: T1, mCherry-PARP1 (Homo sapiens, UniProt P09874 1-1014); experiment: condensation, fluorescence microscopy; 4 µM protein; lost at high salt; reentrant at high DNA; Condensation (DIC, PARP1 truncations): 20 mM Tris pH 7.5, 50 mM NaCl, 7.5 mM MgCl2, 1 mM DTT; DNA curtains: 25-150 mM NaCl tested; temperature not stated; conditions: protein: recombinant; tags: mCherry (pET-SUMO-mCherry-PARP1); label: Cy5 at 5' of S10 (labelled version, 10% where stated); three annealed oligos, central nick, blunt ends
T1 sequence (P09874 whole entry, the tested form may be a part): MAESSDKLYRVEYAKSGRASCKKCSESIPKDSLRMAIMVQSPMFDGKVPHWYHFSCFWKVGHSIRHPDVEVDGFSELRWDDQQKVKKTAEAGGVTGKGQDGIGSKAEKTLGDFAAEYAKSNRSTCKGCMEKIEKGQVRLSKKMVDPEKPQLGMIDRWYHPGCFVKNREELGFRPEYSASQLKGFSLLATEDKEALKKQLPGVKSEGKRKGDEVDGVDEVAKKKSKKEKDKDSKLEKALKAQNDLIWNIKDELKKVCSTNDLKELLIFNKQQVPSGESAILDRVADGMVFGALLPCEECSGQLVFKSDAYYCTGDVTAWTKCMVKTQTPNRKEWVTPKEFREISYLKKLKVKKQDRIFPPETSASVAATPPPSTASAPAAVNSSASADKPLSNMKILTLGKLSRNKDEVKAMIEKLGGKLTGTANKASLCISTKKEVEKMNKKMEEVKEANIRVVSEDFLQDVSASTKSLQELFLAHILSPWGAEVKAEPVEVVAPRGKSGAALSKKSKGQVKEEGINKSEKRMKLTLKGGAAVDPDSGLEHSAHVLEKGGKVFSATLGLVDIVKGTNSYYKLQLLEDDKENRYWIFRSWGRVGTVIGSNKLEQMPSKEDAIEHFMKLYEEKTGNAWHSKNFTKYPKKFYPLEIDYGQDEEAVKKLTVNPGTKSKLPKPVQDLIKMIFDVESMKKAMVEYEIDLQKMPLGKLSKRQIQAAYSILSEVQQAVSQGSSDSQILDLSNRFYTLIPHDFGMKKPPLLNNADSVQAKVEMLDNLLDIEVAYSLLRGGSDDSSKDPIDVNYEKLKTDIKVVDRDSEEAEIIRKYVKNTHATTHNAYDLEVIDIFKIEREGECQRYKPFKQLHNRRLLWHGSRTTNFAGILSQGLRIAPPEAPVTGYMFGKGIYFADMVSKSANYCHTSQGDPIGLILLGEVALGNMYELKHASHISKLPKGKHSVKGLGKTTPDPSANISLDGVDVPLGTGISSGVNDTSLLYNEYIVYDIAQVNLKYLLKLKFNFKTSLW

PARP1 = PARP1 (Homo sapiens, UniProt P09874 1-1014); experiment: single-molecule oligo capture on lambda DNA; 5 nM PARP1, 20 nM oligo; 98% of oligos dissociate with 500 µM NAD+; Condensation (DIC, PARP1 truncations): 20 mM Tris pH 7.5, 50 mM NaCl, 7.5 mM MgCl2, 1 mM DTT; DNA curtains: 25-150 mM NaCl tested; temperature not stated; conditions: protein: recombinant; tags: none stated after His-SUMO cleavage; label: 3' ATTO647N on S4; blunt
Sequence of PARP1 (P09874 whole entry, the tested form may be a part): as above

mCherry-PARP1 [2] = biological target: T1, mCherry-PARP1; experiment: condensation, fluorescence microscopy; 4 µM protein; Condensation (DIC, PARP1 truncations): 20 mM Tris pH 7.5, 50 mM NaCl, 7.5 mM MgCl2, 1 mM DTT; DNA curtains: 25-150 mM NaCl tested; temperature not stated; conditions: protein: recombinant; tags: mCherry (pET-SUMO-mCherry-PARP1); dumbbell: two hairpins with a single nick

B1: triplex DNA (nicked) (dsDNA)
DNA 1: GCTTAGCTTGGAATCGTATCATGTACACTCGTGTGCCGTGTAGACCGTGCC
DNA 2: TGTACATGATACGATTCCAAGCTAAGC
DNA 3: GGCACGGTCTACACGGCACACGAG
modifications: 5'-phosphate on S9
binding result (mCherry-PARP1 [1]): binds

B2: 60 bp DNA-ATTO647N (dsDNA)
DNA 1: ACGAAGTCTTATGGCAAAACCGATGGACTATGTTTCGGGTAGCACCAGAAGTCTATAACA
DNA 2: TGTTATAGACTTCTGGTGCTACCCGAAACATAGTCCATCGGTTTTGCCATAAGACTTCGT
modifications: 5' BioTEG on S3
binding result (PARP1): binds

B3: nicked dumbbell DNA (structured_DNA)
DNA: GCTGGCTTCGTAAGAAGCCAGCTCGCGGTCAGCTTGCTGACCGCG
modifications: 5'-phosphate
binding result (mCherry-PARP1 [2]): binds
